Reference: the supplement of paper PMC9112550, “Optimization of the antimicrobial peptide Bac7 by deep mutational scanning” (BMC Biology, 2022)

Test system: Escherichia coli TOP10
Assay: shrunken log2 fold change of peptide-encoding DNA abundance (4.5 h post-induction vs induction); higher = less antimicrobial activity (less host growth inhibition)
Conditions: time post-induction: 4.5 h; library: site-saturation at positions 5, 18, 19, 20
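Note: peptides expressed intracellularly from a pBAD plasmid library in pooled LB shake-flask culture, induced with 0.3% L-arabinose, DNA abundance read by NGS, three biological replicates, DESeq2 with apeglm shrinkage.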

## RRIRVRPPRLPRPRPRPVADPRP
  shrunken log2 fold change: 0.181

## RRIRSRPPRLPRPRPRPCVKPRP
  shrunken log2 fold change: -0.414

## RRIRKRPPRLPRPRPRPTDNPRP
  shrunken log2 fold change: 0.219

## RRIRKRPPRLPRPRPRPTCGPRP
  shrunken log2 fold change: 0.561

## RRIRDRPPRLPRPRPRPEDTPRP
  shrunken log2 fold change: 0.509

## RRIRTRPPRLPRPRPRPSPNPRP
  shrunken log2 fold change: -0.337

## RRIRWRPPRLPRPRPRPGNCPRP
  shrunken log2 fold change: -0.0763

## RRIRMRPPRLPRPRPRPFSYPRP
  shrunken log2 fold change: -0.029

## RRIRRRPPRLPRPRPRPRRRPRP
  shrunken log2 fold change: 0.778

## RRIRKRPPRLPRPRPRPQRTPRP
  shrunken log2 fold change: 0.419

## RRIRPRPPRLPRPRPRPDGTPRP
  shrunken log2 fold change: -0.122

## RRIRERPPRLPRPRPRPADVPRP
  shrunken log2 fold change: 0.00489

## RRIRWRPPRLPRPRPRPQTAPRP
  shrunken log2 fold change: 0.282

## RRIRCRPPRLPRPRPRPKVSPRP
  shrunken log2 fold change: 0.0213

## RRIRYRPPRLPRPRPRPMFRPRP
  shrunken log2 fold change: -0.296

## RRIRPRPPRLPRPRPRPGWEPRP
  shrunken log2 fold change: 0.462

## RRIRNRPPRLPRPRPRPNNSPRP
  shrunken log2 fold change: -0.376

## RRIRFRPPRLPRPRPRPSLKPRP
  shrunken log2 fold change: -0.196

## RRIRARPPRLPRPRPRPFEAPRP
  shrunken log2 fold change: 0.564

## RRIRSRPPRLPRPRPRPNILPRP
  shrunken log2 fold change: -0.61

## RRIRHRPPRLPRPRPRPHKDPRP
  shrunken log2 fold change: -0.384

## RRIRCRPPRLPRPRPRPAWCPRP
  shrunken log2 fold change: 0.128

## RRIRVRPPRLPRPRPRPNMIPRP
  shrunken log2 fold change: -0.491

## RRIRWRPPRLPRPRPRPADYPRP
  shrunken log2 fold change: -0.123

## RRIRQRPPRLPRPRPRPRMFPRP
  shrunken log2 fold change: 0.0604

## RRIRVRPPRLPRPRPRPECNPRP
  shrunken log2 fold change: -0.195

## RRIRDRPPRLPRPRPRPRHDPRP
  shrunken log2 fold change: 0.0894

## RRIRRRPPRLPRPRPRPNYIPRP
  shrunken log2 fold change: -0.237

## RRIRCRPPRLPRPRPRPIRVPRP
  shrunken log2 fold change: 0.161

## RRIRYRPPRLPRPRPRPPQGPRP
  shrunken log2 fold change: -0.0838

## RRIRTRPPRLPRPRPRPGNVPRP
  shrunken log2 fold change: 0.0939

## RRIRRRPPRLPRPRPRPNMSPRP
  shrunken log2 fold change: 2.14

## RRIRGRPPRLPRPRPRPRPEPRP
  shrunken log2 fold change: 0.667

## RRIRIRPPRLPRPRPRPIQCPRP
  shrunken log2 fold change: 0.0629

## RRIRHRPPRLPRPRPRPRTPPRP
  shrunken log2 fold change: 0.314

## RRIRSRPPRLPRPRPRPMWIPRP
  shrunken log2 fold change: -0.0694

## RRIRLRPPRLPRPRPRPHFMPRP
  shrunken log2 fold change: 0.0603

## RRIRPRPPRLPRPRPRPKQRPRP
  shrunken log2 fold change: 0.186

## RRIRERPPRLPRPRPRPMINPRP
  shrunken log2 fold change: -0.0967

## RRIRTRPPRLPRPRPRPKAFPRP
  shrunken log2 fold change: -0.149

## RRIRQRPPRLPRPRPRPSTFPRP
  shrunken log2 fold change: -0.176

## RRIRNRPPRLPRPRPRPTLHPRP
  shrunken log2 fold change: -0.0665

## RRIRMRPPRLPRPRPRPHCIPRP
  shrunken log2 fold change: -0.0281

## RRIRNRPPRLPRPRPRPPTMPRP
  shrunken log2 fold change: -0.126

## RRIRKRPPRLPRPRPRPVNLPRP
  shrunken log2 fold change: -0.0889

## RRIRQRPPRLPRPRPRPYKHPRP
  shrunken log2 fold change: -0.161

## RRIRIRPPRLPRPRPRPILCPRP
  shrunken log2 fold change: -0.0872

## RRIRHRPPRLPRPRPRPRIRPRP
  shrunken log2 fold change: -0.00948

## RRIRGRPPRLPRPRPRPCFWPRP
  shrunken log2 fold change: 0.67

## RRIRNRPPRLPRPRPRPPYKPRP
  shrunken log2 fold change: -0.311

## RRIRDRPPRLPRPRPRPEQDPRP
  shrunken log2 fold change: 1.39

## RRIRQRPPRLPRPRPRPHLRPRP
  shrunken log2 fold change: -0.0964

## RRIRLRPPRLPRPRPRPTVCPRP
  shrunken log2 fold change: -0.0284

## RRIRNRPPRLPRPRPRPNMVPRP
  shrunken log2 fold change: -0.385

## RRIRCRPPRLPRPRPRPRHRPRP
  shrunken log2 fold change: -0.466

## RRIRFRPPRLPRPRPRPPDLPRP
  shrunken log2 fold change: -0.329

## RRIRWRPPRLPRPRPRPCTQPRP
  shrunken log2 fold change: -0.177

## RRIRRRPPRLPRPRPRPGPDPRP
  shrunken log2 fold change: 0.518

## RRIRSRPPRLPRPRPRPHQSPRP
  shrunken log2 fold change: -0.198

## RRIRTRPPRLPRPRPRPGWFPRP
  shrunken log2 fold change: 0.461

## RRIRPRPPRLPRPRPRPLIPPRP
  shrunken log2 fold change: -0.19

## RRIRIRPPRLPRPRPRPWKMPRP
  shrunken log2 fold change: -1.13

## RRIRTRPPRLPRPRPRPHYCPRP
  shrunken log2 fold change: -0.418

## RRIRLRPPRLPRPRPRPEYDPRP
  shrunken log2 fold change: 0.0855

## RRIRIRPPRLPRPRPRPKSFPRP
  shrunken log2 fold change: 0.0398

## RRIRPRPPRLPRPRPRPMCAPRP
  shrunken log2 fold change: 0.159

## RRIRDRPPRLPRPRPRPPRLPRP
  shrunken log2 fold change: 0.144

## RRIRGRPPRLPRPRPRPLVDPRP
  shrunken log2 fold change: 1.1

## RRIRHRPPRLPRPRPRPDFHPRP
  shrunken log2 fold change: -0.769

## RRIRARPPRLPRPRPRPYGFPRP
  shrunken log2 fold change: 0.00293

## RRIRRRPPRLPRPRPRPNVMPRP
  shrunken log2 fold change: -0.149

## RRIRARPPRLPRPRPRPLICPRP
  shrunken log2 fold change: 0.341

## RRIRTRPPRLPRPRPRPAQHPRP
  shrunken log2 fold change: 0.0266

## RRIRVRPPRLPRPRPRPLMNPRP
  shrunken log2 fold change: -0.649

## RRIRDRPPRLPRPRPRPYQRPRP
  shrunken log2 fold change: 0.058

## RRIRYRPPRLPRPRPRPMEDPRP
  shrunken log2 fold change: -0.0944

## RRIRPRPPRLPRPRPRPHPDPRP
  shrunken log2 fold change: -0.0791

## RRIRIRPPRLPRPRPRPGYDPRP
  shrunken log2 fold change: -0.576

## RRIRTRPPRLPRPRPRPYFVPRP
  shrunken log2 fold change: -0.258

## RRIRFRPPRLPRPRPRPWFHPRP
  shrunken log2 fold change: -0.714

## RRIRVRPPRLPRPRPRPWNKPRP
  shrunken log2 fold change: -0.635

## RRIRLRPPRLPRPRPRPWNVPRP
  shrunken log2 fold change: -0.0513

## RRIRRRPPRLPRPRPRPVRAPRP
  shrunken log2 fold change: 0.935

## RRIRQRPPRLPRPRPRPAFFPRP
  shrunken log2 fold change: 0.11

## RRIRFRPPRLPRPRPRPAQKPRP
  shrunken log2 fold change: 0.166

## RRIRCRPPRLPRPRPRPCVTPRP
  shrunken log2 fold change: 0.0974

## RRIRFRPPRLPRPRPRPDVLPRP
  shrunken log2 fold change: -0.0865

## RRIRNRPPRLPRPRPRPEPAPRP
  shrunken log2 fold change: 0.88

## RRIRIRPPRLPRPRPRPDMLPRP
  shrunken log2 fold change: -0.618

## RRIRSRPPRLPRPRPRPIERPRP
  shrunken log2 fold change: -0.23

## RRIRHRPPRLPRPRPRPTDCPRP
  shrunken log2 fold change: 0.038

## RRIRDRPPRLPRPRPRPSGQPRP
  shrunken log2 fold change: -0.0305

## RRIRQRPPRLPRPRPRPDFYPRP
  shrunken log2 fold change: -0.288

## RRIRERPPRLPRPRPRPRHDPRP
  shrunken log2 fold change: -0.328

## RRIRARPPRLPRPRPRPRKRPRP
  shrunken log2 fold change: 0.778

## RRIRWRPPRLPRPRPRPHFHPRP
  shrunken log2 fold change: -0.596

## RRIRRRPPRLPRPRPRPSNHPRP
  shrunken log2 fold change: -0.396

## RRIRMRPPRLPRPRPRPRRHPRP
  shrunken log2 fold change: 1.02

## RRIRPRPPRLPRPRPRPARTPRP
  shrunken log2 fold change: 0.396

## RRIRDRPPRLPRPRPRPQFRPRP
  shrunken log2 fold change: -0.296

## RRIRSRPPRLPRPRPRPVTKPRP
  shrunken log2 fold change: -0.00403

## RRIRGRPPRLPRPRPRPTGGPRP
  shrunken log2 fold change: 0.887

## RRIRKRPPRLPRPRPRPQVQPRP
  shrunken log2 fold change: 0.131

## RRIRTRPPRLPRPRPRPNEFPRP
  shrunken log2 fold change: 0.0177

## RRIRMRPPRLPRPRPRPTYYPRP
  shrunken log2 fold change: -0.554

## RRIRCRPPRLPRPRPRPSTWPRP
  shrunken log2 fold change: -0.0554

## RRIRMRPPRLPRPRPRPLLPPRP
  shrunken log2 fold change: 0.354

## RRIRNRPPRLPRPRPRPGCGPRP
  shrunken log2 fold change: 0.451

## RRIRFRPPRLPRPRPRPSESPRP
  shrunken log2 fold change: -0.0918

## RRIRYRPPRLPRPRPRPGWLPRP
  shrunken log2 fold change: 0.0173

## RRIRTRPPRLPRPRPRPDHVPRP
  shrunken log2 fold change: -0.0634

## RRIRPRPPRLPRPRPRPMMQPRP
  shrunken log2 fold change: -0.369

## RRIRTRPPRLPRPRPRPRMDPRP
  shrunken log2 fold change: -0.38

## RRIRERPPRLPRPRPRPWWFPRP
  shrunken log2 fold change: 0.137

## RRIRFRPPRLPRPRPRPMQVPRP
  shrunken log2 fold change: -0.228

## RRIRQRPPRLPRPRPRPYIPPRP
  shrunken log2 fold change: -0.619

## RRIRIRPPRLPRPRPRPWSCPRP
  shrunken log2 fold change: 0.0678

## RRIRYRPPRLPRPRPRPASDPRP
  shrunken log2 fold change: -0.348

## RRIRYRPPRLPRPRPRPRSWPRP
  shrunken log2 fold change: -0.0913

## RRIRCRPPRLPRPRPRPVTSPRP
  shrunken log2 fold change: -0.0245

## RRIRWRPPRLPRPRPRPKVAPRP
  shrunken log2 fold change: 1.16

## RRIRIRPPRLPRPRPRPRCIPRP
  shrunken log2 fold change: -0.44

## RRIRPRPPRLPRPRPRPCRMPRP
  shrunken log2 fold change: -0.0012

## RRIRNRPPRLPRPRPRPDYNPRP
  shrunken log2 fold change: -0.782

## RRIRLRPPRLPRPRPRPIVYPRP
  shrunken log2 fold change: -0.43

## RRIRRRPPRLPRPRPRPRFWPRP
  shrunken log2 fold change: 0.652

## RRIRERPPRLPRPRPRPIMWPRP
  shrunken log2 fold change: -0.268

## RRIRFRPPRLPRPRPRPNPHPRP
  shrunken log2 fold change: -0.428

## RRIRGRPPRLPRPRPRPWGFPRP
  shrunken log2 fold change: -0.126

## RRIRDRPPRLPRPRPRPKMHPRP
  shrunken log2 fold change: 0.159

## RRIRMRPPRLPRPRPRPNLDPRP
  shrunken log2 fold change: 0.00884

## RRIRLRPPRLPRPRPRPGICPRP
  shrunken log2 fold change: 0.126

## RRIRDRPPRLPRPRPRPDSGPRP
  shrunken log2 fold change: -0.00436

## RRIRMRPPRLPRPRPRPFSHPRP
  shrunken log2 fold change: 0.0882

## RRIRKRPPRLPRPRPRPQRHPRP
  shrunken log2 fold change: 1.73

## RRIRMRPPRLPRPRPRPQKYPRP
  shrunken log2 fold change: 0.136

## RRIRRRPPRLPRPRPRPWPVPRP
  shrunken log2 fold change: 0.0907

## RRIRYRPPRLPRPRPRPAVRPRP
  shrunken log2 fold change: -0.0403

## RRIRCRPPRLPRPRPRPMMGPRP
  shrunken log2 fold change: 0.0355

## RRIRIRPPRLPRPRPRPYLKPRP
  shrunken log2 fold change: 0.000419

## RRIRCRPPRLPRPRPRPVAAPRP
  shrunken log2 fold change: 0.689

## RRIRTRPPRLPRPRPRPAPHPRP
  shrunken log2 fold change: 0.22

## RRIRYRPPRLPRPRPRPWFEPRP
  shrunken log2 fold change: -0.2

## RRIRKRPPRLPRPRPRPNHCPRP
  shrunken log2 fold change: 0.0144

## RRIRPRPPRLPRPRPRPMQSPRP
  shrunken log2 fold change: 0.524

## RRIRRRPPRLPRPRPRPWPIPRP
  shrunken log2 fold change: 0.0239

## RRIRERPPRLPRPRPRPTRFPRP
  shrunken log2 fold change: 0.169

## RRIRVRPPRLPRPRPRPLRCPRP
  shrunken log2 fold change: 0.0372

## RRIRPRPPRLPRPRPRPYKPPRP
  shrunken log2 fold change: -0.481

## RRIRRRPPRLPRPRPRPLRVPRP
  shrunken log2 fold change: 0.966
